From patent US20260250320A1, “LIPIDATED PEPTIDE INHIBITORS OF INTERLEUKIN-23 RECEPTOR” (Janssen Pharmaceutica NV, priority 2023, published 2026)
*1 amine or outer side, *2 acyl side, *3 side chain or, on linkers, in order; H or OH if unused. Bridges are numbered along the chain shown (N, C = ends). Primed or numbered codes have the meaning given here. Side-chain parts run from the residue outwards. [ ]: non-standard residue; d: D form. PEG2′ = PEG2 spacer unit (not further defined); Trp(7-Me) = Cc1cccc2c(C[C@H](N)C(=O)O)c[nH]c12; γGlu = O=C(O)[C@H](CCC(=O)[*:2])N[*:1]; 2Nal = N[C@@H](Cc1ccc2ccccc2c1)C(=O)O; AEF = NCCOc1ccc(C[C@H](N)C(=O)O)cc1; 3Pal = N[C@@H](Cc1cccnc1)C(=O)O; NMeK = CN[C@@H](CCCCN)C(=O)O; Pen = CC(C)(S)[C@H](N)C(=O)O; PEG12′ = not defined here; PEG4′ = not defined here; dAEF′ = not defined here; Thp = NC1(C(=O)O)CCOCC1; Sar = CNCC(=O)O

Experiments:
[1] = biological target: T1, interleukin-23 receptor (IL-23R) (UniProt Q5VWK5 24-629, limits assumed); experiment: cell-based or functional assay
T1 sequence (looked up): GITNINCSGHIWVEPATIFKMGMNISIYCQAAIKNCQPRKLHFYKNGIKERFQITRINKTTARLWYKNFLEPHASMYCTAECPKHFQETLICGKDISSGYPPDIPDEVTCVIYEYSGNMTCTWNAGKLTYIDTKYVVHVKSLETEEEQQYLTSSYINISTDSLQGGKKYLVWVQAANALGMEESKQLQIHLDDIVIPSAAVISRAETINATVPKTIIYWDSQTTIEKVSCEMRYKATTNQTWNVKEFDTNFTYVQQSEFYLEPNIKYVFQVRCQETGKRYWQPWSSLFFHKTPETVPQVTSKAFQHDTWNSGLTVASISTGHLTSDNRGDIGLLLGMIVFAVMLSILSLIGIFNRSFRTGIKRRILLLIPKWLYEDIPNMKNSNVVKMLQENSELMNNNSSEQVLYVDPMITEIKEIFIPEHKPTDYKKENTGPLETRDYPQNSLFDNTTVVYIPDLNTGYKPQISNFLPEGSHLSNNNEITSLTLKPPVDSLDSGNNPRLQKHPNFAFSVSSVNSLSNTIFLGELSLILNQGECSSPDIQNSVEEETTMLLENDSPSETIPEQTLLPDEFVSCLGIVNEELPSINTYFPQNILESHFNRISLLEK

[2] = biological target: T1, interleukin-23 receptor (IL-23R); experiment: cell-based or functional assay; remark: listed apart in the source

| Binder | PBMC pSTAT3 IC50 [1] [nM] | IC50, IL23R reporter assay [2] [nM] |
| --- | --- | --- |
| Ac-[dR][Pen]XT[Trp(7-Me)]K(Ac)[Pen][AEF][2Nal][Thp]EN[3Pal][NMeK]([PEG2′-PEG2′-γGlu-C18OH])-NH2 (disulfide 2-7 (inferred); not fully specified (residue 3); printed as MeCO-r-Pen(3)-K(d)-T-7MeW-K(Ac)-Pen(3)-AEF-2Nal-THP-E-N-3Pya-NMeK(PEG2PEG2gEC18OH)-CONH2) [SEQ ID NO: 30] | < 0.5 | < 50 |
| Ac-K[Pen]NT[Trp(7-Me)]K(Ac)[Pen][AEF][2Nal][Thp]EN[3Pal][Sar]-NH2 (disulfide 2-7 (inferred); not fully specified (residue 1); printed as MeCO-k(PEG12gEC20OH)-Pen(3)-N-T-7MeW-K(Ac)-Pen(3)-AEF-2Nal-THP-E-N-3Pya-Sar-CONH2) [SEQ ID NO: 26] | < 0.5 | < 50 |
| XNTXXXXXXENXXK (MeCO-Pen(3)-N-T-7MeW-K(Ac)-Pen(3)-AEF-2Nal-THP-E-N-3Pya-Sar-K(PEG2PEG2gEC18OH)-CONH2) [SEQ ID NO: 27] | < 0.5 | < 50 |
| Ac-[dR][Pen]K([PEG12′-γGlu-C20OH])T[Trp(7-Me)]K(Ac)[Pen][AEF][2Nal][Thp]EN[3Pal][Sar]-NH2 (disulfide 2-7 (inferred)) [SEQ ID NO: 99] | < 0.5 | < 50 |
| Ac-[dK]([PEG12′-γGlu-C18OH])[Pen]NT[Trp(7-Me)]K(Ac)[Pen][AEF][2Nal][Thp]EN[3Pal][Sar]-NH2 (disulfide 2-7 (inferred)) [SEQ ID NO: 117] | < 0.5 | < 50 |
| XNTXXXXXXXNXXK (MeCO-Pen(3)-N-T-7MeW-K(Ac)-Pen(3)-AEF-2Nal-THP-K(Ac)-N-3Pya-Sar-K(PEG12gEC18OH)-CONH2) [SEQ ID NO: 102] | < 0.5 | < 50 |
| Ac-[dK]([PEG12′-γGlu-C20OH])[Pen]NT[Trp(7-Me)]K(Ac)[Pen][AEF][2Nal][Thp]K(Ac)N[3Pal]X-NH2 (disulfide 2-7 (inferred); not fully specified (residue 14); printed as MeCO-k(PEG12gEC20OH)-Pen(3)-N-T-7MeW-K(Ac)-Pen(3)-AEF-2Nal-THP-K(Ac)-N-3Pya-Ser-CONH2) [SEQ ID NO: 104] | < 0.5 | < 50 |
| Ac-[dK]([PEG2′-PEG2′-γGlu-C18OH])[Pen]XT[Trp(7-Me)]K(Ac)[Pen][AEF][2Nal][Thp]EN[3Pal][Sar]-NH2 (disulfide 2-7 (inferred); not fully specified (residue 3); printed as MeCO-k(PEG2PEG2gEC18OH)-Pen(3)-K(d)-T-7MeW-K(Ac)-Pen(3)-AEF-2Nal-THP-E-N-3Pya-Sar-CONH2) [SEQ ID NO: 35] | < 0.5 | < 50 |
| XNTXXXXXXXNXXK (MeCO-Pen(3)-N-T-7MeW-K(Ac)-Pen(3)-AEF-2Nal-THP-K(Ac)-N-3Pya-Sar-K(PEG12gEC20OH)-CONH2) [SEQ ID NO: 101] | < 0.5 | < 50 |
| XNTXXXXXXKNXX (MeCO-Pen(3)-N-T-7MeW-K(Ac)-Pen(3)-AEF-2Nal-THP-K(PEG12gEC18OH)-N-3Pya-Sar-CONH2) [SEQ ID NO: 100] | < 0.5 | < 50 |
| Ac-[dK]([PEG2′-PEG2′-γGlu-C18OH])[Pen]NT[Trp(7-Me)]X[Pen][AEF][2Nal][Thp]EN[3Pal][Sar]-NH2 (disulfide 2-7 (inferred); not fully specified (residue 6); printed as MeCO-k(PEG2PEG2gEC18OH)-Pen(3)-N-T-7MeW-K(d)-Pen(3)-AEF-2Nal-THP-E-N-3Pya-Sar-CONH2) [SEQ ID NO: 34] | < 0.5 | < 50 |
| Ac-[dR][Pen]NT[Trp(7-Me)]K(Ac)[Pen][dAEF′][2Nal][Thp]K([PEG2′-PEG2′-γGlu-C18OH])N[3Pal][Sar]-NH2 (disulfide 2-7 (inferred); reading uncertain; also: printed as MeCO-r-Pen(3)-N-T-7MeW-K(Ac)-Pen(3)-AEF(d)-2Nal-THP-K(PEG2PEG2gEC18OH)-N-3Pya-Sar-CONH2) [SEQ ID NO: 22] | < 0.5 | < 50 |
| Ac-[dK]([PEG2′-PEG2′-γGlu-C18OH])[Pen]NT[Trp(7-Me)]K(Ac)[Pen][AEF][2Nal][Thp]XN[3Pal][Sar]-NH2 (disulfide 2-7 (inferred); not fully specified (residue 11); printed as MeCO-k(PEG2PEG2gEC18OH)-Pen(3)-N-T-7MeW-K(Ac)-Pen(3)-AEF-2Nal-THP-K(d)-N-3Pya-Sar-CONH2) [SEQ ID NO: 33] | < 0.5 | < 50 |
| {HOC18-γGlu-PEG12′}-[Pen]NTK(Ac)[Pen][AEF][2Nal][Thp]EN[3Pal][Sar]-NH2 (disulfide 1-5 (inferred); not fully specified; printed as HOC18gEPEG12CO-Pen(3)-N-T-K(Ac)-Pen(3)-AEF-2Nal-THP-E-N-3Pya-Sar-CONH2) [SEQ ID NO: 116] | < 0.5 | < 50 |
| Ac-[dR][Pen]NT[Trp(7-Me)]K(Ac)[Pen][AEF][2Nal][Thp]K([PEG4′-AcCl])N[3Pal][Sar]K([PEG2′-PEG2′-γGlu-C18OH])-NH2 (disulfide 2-7 (inferred)) [SEQ ID NO: 4] | < 0.5 | < 50 |
| Ac-[dR][Pen]NT[Trp(7-Me)]K(Ac)[Pen][AEF][2Nal][Thp]EN[3Pal][Sar]K([PEG12′-γGlu-C18OH])-NH2 (disulfide 2-7 (inferred)) [SEQ ID NO: 133] | < 0.5 | < 50 |
| XNTXXXXXXENXXK (not fully specified; MeCO-Pen(3)-N-T-7MeW-K(Ac)-Pen(3)-AEF-2Nal-THP-E-N-3Pya-Sar-K(PEG2PEG2gEC18OH)-CONH(PEG3a)) [SEQ ID NO: 150] | ≥ 5 | ≥ 500 |
| Ac-[dR][Pen]K([PEG12′-γGlu-C18OH])T[Trp(7-Me)]K(Ac)[Pen][AEF][2Nal][Thp]EN[3Pal][Sar]-NH2 (disulfide 2-7 (inferred)) [SEQ ID NO: 105] | < 0.5 | < 50 |
| XNTXXXXXXENXXK (MeCO-Pen(3)-N-T-7MeW-K(Ac)-Pen(3)-AEF-2Nal-THP-E-N-3Pya-Sar-K(PEG12gEC20OH)-CONH2) [SEQ ID NO: 103] | < 0.5 | < 50 |
| Ac-[dK]([PEG12′-γGlu-C18OH])[Pen]NT[Trp(7-Me)]K(Ac)[Pen][AEF][2Nal][Thp]K(Ac)N[3Pal][Sar]-NH2 (disulfide 2-7 (inferred)) [SEQ ID NO: 98] | < 0.5 | < 50 |
| XNTXXXXXXENXXK (MeCO-Pen(3)-N-T-7MeW-K(Ac)-Pen(3)-AEF-2Nal-THP-E-N-3Pya-Sar-K(PEG12gEC18OH)-CONH2) [SEQ ID NO: 161] | < 0.5 | < 50 |
| XNTXXXXXXENXXK (MeCO-Pen(3)-N-T-7MeW-K(Ac)-Pen(3)-AEF-2Nal-THP-E-N-3Pya-Sar-K(PEG2PEG2gEC18OH)-CON(Me)2) [SEQ ID NO: 149] | ≥ 5 | ≥ 500 |
| Ac-[dR][Pen]NT[Trp(7-Me)]K(Ac)[Pen][AEF][2Nal][Thp]K([PEG2′-PEG2′-γGlu-C18OH])N[3Pal]X-NH2 (disulfide 2-7 (inferred); not fully specified (residue 14); printed as MeCO-r-Pen(3)-N-T-7MeW-K(Ac)-Pen(3)-AEF-2Nal-THP-K(PEG2PEG2gEC18OH)-N-3Pya-NMeK(d)-CONH2) [SEQ ID NO: 21] | < 0.5 | < 50 |
| Ac-[dR][Pen]NT[Trp(7-Me)]K(Ac)[Pen][AEF][2Nal][Thp]EN[3Pal][Sar]K([PEG12′-γGlu-C20OH])-NH2 (disulfide 2-7 (inferred)) [SEQ ID NO: 134] | < 0.5 | < 50 |
| XNTXXXXXXENXXK (MeCO-Pen(3)-N-T-7MeW-K(Ac)-Pen(3)-AEF-2Nal-THP-E-N-3Pya-Sar-K(PEG2NMePEG2NMegENMeC18Tetrazole)-CONH2) [SEQ ID NO: 3] | < 0.5 | < 50 |
